Biological target: the molecule itself
Experiment: nonreducing SDS-PAGE + mass spectrometry of the band

B1: native Bet v 1d in aqueous birch pollen extract (BPE) (natural protein, UniProt P43177 1-160, looked up)
chain: MGVFNYEIETTSVIPAARLFKAFILDGDNLVPKVAPQAISSVENIEGNGGPGTIKKINFPEGFPFKYVKDRVDEVDHTNFKYNYSVIEGGPVGDTLEKISNEIKIVATPDGGCVLKISNKYHTKGNHEVKAEQVKASKEMGETLLRAVESYLLAHSDAYN
In the case of B1, the “stoichiometry N” value is reported as 2.

— PMC2968749 (Journal of immunology (Baltimore, Md. : 1950), 2009)
